From patent publication US20160376343A1 (NATIONAL INSTITUTE FOR BIOTECHNOLOGY IN THE NEGEV, published 2016)
Substitutions are numbered along the chain they refer to. Names and notes keep the numbering of the source.

B1: V3 K109R (Fc fusion)
chain: LRLLDHRAPVCSQPGLNCTVKNSTCLDDSWIHPRNLTPSSPKDLQIQLHFAHTQQGDLFPVAHIEWTLQTDASILYLEGAELSVLQLNTNERLCVRFEFLSKLRHHHRRWRFTFSHFVVDPGQEYEVTVHHLPKPIPDGDPNHQSKNFLVPDCEDARMKVTTPCMSSGSLWDPNITVETLEAHQLRVSFTLWNESTHYQILLTSFPHMENHSCFEHMHHIPAPRPEEFHQRSNVTLTLRNLKWCCRHQVQIQPFFSSCLNDCLRHSVTVSCPEMPDTPEPIPDYMPLW
notes: Expressed in mammalian cells; not shown: human IgG1 engineered Fc from the mammalian expression vector
B2: hIL17RA-ECD variant V10 (Fc fusion)
chain: B1 chain with F59V, R108K, D155H, A156P, W243G, V267A
notes: also called V10M; not shown: human IgG1 engineered Fc (reduced ADCC/CDC) from the expression vector
B3: V10 V60F (Fc fusion)
chain: B1 chain with R108K, D155H, A156P, W243G, V267A
notes: as for B1
B4: V10 K109R (Fc fusion)
chain: B1 chain with F59V, D155H, A156P, W243G, V267A
notes: as for B1
B5: V3 W244G (Fc fusion)
chain: B1 chain with R108K, W243G
notes: as for B1
B6: V3M V268A (Fc fusion)
chain: B1 chain with R108K, V267A
notes: Expressed in mammalian cells; also called V3 V268A; not shown: human IgG1 engineered Fc from the mammalian expression vector
B7: hIL17RA-ECD variant V3 (Fc fusion)
chain: B1 chain with R108K
notes: also called hIL-17R-V3; hIL17R-V3; not shown: human IgG1 engineered Fc (reduced ADCC/CDC) from the expression vector
B8: V3 P10L (Fc fusion)
chain: B1 chain with P9L, R108K
notes: as for B1
B9: V1 expressed in E. coli (Trx-6xHis-tagged) (receptor)
chain: B1 chain with P9L, P14E, D43N, F59L, R108K, G122D, R239S, W243G, V267A
notes: Tested as cleared E. coli lysate; not shown: N-terminal thioredoxin (Trx)-6xHistidine tag of pET32
B10: V15 expressed in E. coli (Trx-6xHis-tagged) (receptor)
chain: B1 chain with P9L, L44V, F99I, D155H, W243G
notes: as for B9
B11: V11 expressed in E. coli (Trx-6xHis-tagged) (receptor)
chain: B1 chain with P9L, P14E, R108K, G122D, Q123R, D155H, A156P, W243G, V267A
notes: as for B9
B12: V17 expressed in E. coli (Trx-6xHis-tagged) (receptor)
chain: B1 chain with P9L, F59L, K102E, W243G, V267A
notes: as for B9
B13: V14 expressed in E. coli (Trx-6xHis-tagged) (receptor)
chain: B1 chain with P9L, L44V, Q55H, R108K, G122D, G139R, W243G, Q248H
notes: as for B9
B14: V12 expressed in E. coli (Trx-6xHis-tagged) (receptor)
chain: B1 chain with H116R, G122D, D155H, A156P, W243G, V267A
notes: as for B9
B15: V18 expressed in E. coli (Trx-6xHis-tagged) (receptor)
chain: B1 chain with P9L, N88D, W243G, V267A
notes: as for B9
B16: V8 expressed in E. coli (Trx-6xHis-tagged) (receptor)
chain: B1 chain with P9L, P14E, R108K, G122D, W243G, V267A
notes: as for B9
B17: V13 expressed in E. coli (Trx-6xHis-tagged) (receptor)
chain: B1 chain with P9L, R96K, G122D, N193D, V267A
notes: as for B9
B18: V5 expressed in E. coli (Trx-6xHis-tagged) (receptor)
chain: B1 chain with P9L, D43N, F59L, R96K, R108K, G122D, D155H, W243G, V267A
notes: as for B9
B19: V21 expressed in E. coli (Trx-6xHis-tagged) (receptor)
chain: B1 chain with P9L, F59L, R108K, D155H, A156P, E181K, T203I, W243G, V267A
notes: as for B9
B20: V20 expressed in E. coli (Trx-6xHis-tagged) (receptor)
chain: B1 chain with P14E, L44V, F59V, G122D, Q123R, D155H, A156P, W243G, V267A
notes: as for B9
B21: V16 expressed in E. coli (Trx-6xHis-tagged) (receptor)
chain: B1 chain with P14E, R108K, G122D, W243G, V267A
notes: as for B9
B22: V4 expressed in E. coli (Trx-6xHis-tagged) (receptor)
chain: B1 chain with P9L, L44I, F59L, L68P, G122D, W243G, V267A
notes: as for B9
B23: V7 expressed in E. coli (Trx-6xHis-tagged) (receptor)
chain: B1 chain with P9L, F59V, R108K, G122D, W243G, V267A
notes: as for B9
B24: V19 expressed in E. coli (Trx-6xHis-tagged) (receptor)
chain: B1 chain with R7Q, P9L, P14E, L44I, F59L, G122D, D155H, W243G, V267A
notes: as for B9
B25: V6 expressed in E. coli (Trx-6xHis-tagged) (receptor)
chain: B1 chain with P9L, P14E, F59L, R108K, D155H, W243G, V267A
notes: as for B9
B26: V9 expressed in E. coli (Trx-6xHis-tagged) (receptor)
chain: B1 chain with P14E, D43N, F59L, R96K, R108K, G122D, D155H, W243G, V267A
notes: as for B9

Biological target: T1, hIL-17A (human, UniProt Q16552 24-155)
T1 construct: Bought protein
Assay: ELISA on captured hIL-17A
Method: (§1) ELISA plates (Griener Microlon 96W) were incubated with 100 μl of 0.5 μg/ml goat α-hIL-17A antibodies (R&D Systems) for 1 hour, washed with PBS supplemented with 0.05% Tween-80 (PBST) and 100 μl of 0.35 μg/ml hIL-17A (R&D Systems or ProSpec Tany TechnoGene Ltd.) were added to the plate for an additional 1 hour. The plates were then washed with PBST and blocked by incubation with 100 μl of PBS supplemented with 3% skim milk for 1 hour. Following blocking, the plates were washed and incubated with 100 μl of the cleared lysate, cell media or purified protein generated (described above) at appropriate dilutions and shaken for 1 hour. hIL-17RA (R&D Systems) was applied at a concentration of 6.25 μg/ml as a positive control, and PBS supplemented with 1% BSA as a negative control. Plates were then washed with PBST, incubated with 100 μl of 0.05 μg/ml goat α-hIL-17RA antibodies (R&D Systems) followed by a secondary peroxidase-conjugated streptavidin (Jackson, 1:10000 dilution). Finally, 100 μl of the horseradish peroxidase (HRP) chromogenic 3,3′,5,5′-tetramethylbenzidine (TMB) substrate solution (Dako) were added. The reaction was stopped by the addition of 1 M sulfuric acid and recorded at 450 nm using a Tecan Infinite M200 plate reader.

T1 sequence (Q16552 24-155 limits assumed): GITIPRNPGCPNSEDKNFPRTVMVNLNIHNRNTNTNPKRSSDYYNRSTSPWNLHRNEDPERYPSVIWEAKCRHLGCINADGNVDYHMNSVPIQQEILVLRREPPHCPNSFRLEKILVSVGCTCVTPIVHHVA

IL-17A binding relative to the WT [%]	Binder
45	B1
100	B2
10	B3
80	B4
65	B5
80	B6
100	B7
85	B8

Biological target: T1, hIL-17A
Assay: ELISA on captured hIL-17A, cleared E. coli lysates

binding result	Binder
binds	B9
binds	B10
binds	B11
binds	B12
binds	B13
binds	B14
binds	B15
binds	B16
binds	B17
binds	B18
binds	B19
binds	B20
binds	B21
binds	B22
binds	B23
binds	B24

Biological target: T1, hIL-17A
Assay: SPR (ProteOn XPR36), receptor immobilised, hIL-17A as analyte
Method: The affinity of hIL-17A binding to hIL17RA-ECD variants was determined by SPR measurements on ProteOn XPR36 (Bio-Rad) instrument. All samples were in HBST buffer (10 mM HEPES with 0.15 M NaCl, 3.4 mM EDTA and 0.005% Tween-20, pH 7.2). A GLC Chip was air initialized and activated with EDC/S-NHS and […] from each of the hIL17RA-ECD variants were diluted in Acetate buffer pH 5.5 and immobilized onto the chip. The measured binding levels for WT hIL17RA-ECD, V3 and V10 were ˜5300RU, 6700RU and 7400RU, respectively. Following blockage of the unbound sites on the chip with Ethanolamine, the chip was flushed with HBST buffer and rotated. The hIL-17A was run at 25 μl/min. for 300 sec at various concentrations (50, 25, 12.5, 6.25 and 3.125 nM) followed by a 10-min. dissociation step. Binding parameters were determined using Langmuir single binding site model using the Bio-Rad's proteOn Manager Software V2.1.2.05.

Fold increase in affinity (against WT hIL17RA-ECD) [fold]	Kd [nM]	koff [s⁻¹]	kon [M⁻¹ s⁻¹]	Binder
4.2	0.624	0.000115	184000	B2
6	0.443	7.51e-05	170000	B7

Biological target: T1, hIL-17A
Assay: ELISA of cleared E. coli lysate on plate-captured hIL-17A, detected with biotinylated anti-hIL-17RA and streptavidin-HRP, OD 450 nm; concentration not given
Method: as §1

binding result	Binder
binds	B25
binds	B26
